Laboratory results published in the supplement of paper PMC9112550, “Optimization of the antimicrobial peptide Bac7 by deep mutational scanning” (BMC Biology, 2022).

Test system: Escherichia coli TOP10
Assay: shrunken log2 fold change of peptide-encoding DNA abundance (4.5 h post-induction vs induction); higher = less antimicrobial activity (less host growth inhibition)
Details: time post-induction: 4.5 h; library: site-saturation at positions 5, 18, 19, 20
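Also: peptides expressed intracellularly from a pBAD plasmid library in pooled LB shake-flask culture, induced with 0.3% L-arabinose, DNA abundance read by NGS, three biological replicates, DESeq2 with apeglm shrinkage.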

RRIRIRPPRLPRPRPRPLVMPRP
shrunken log2 fold change: -1.56

RRIRGRPPRLPRPRPRPYGMPRP
shrunken log2 fold change: 0.036

RRIRGRPPRLPRPRPRPDMSPRP
shrunken log2 fold change: 0.0457

RRIRNRPPRLPRPRPRPQIEPRP
shrunken log2 fold change: -0.251

RRIRSRPPRLPRPRPRPIEHPRP
shrunken log2 fold change: -0.0344

RRIRYRPPRLPRPRPRPLIFPRP
shrunken log2 fold change: -1.08

RRIRPRPPRLPRPRPRPQNFPRP
shrunken log2 fold change: -0.0849

RRIRQRPPRLPRPRPRPVATPRP
shrunken log2 fold change: -0.00506

RRIRSRPPRLPRPRPRPCTKPRP
shrunken log2 fold change: -0.581

RRIRFRPPRLPRPRPRPCCIPRP
shrunken log2 fold change: -0.313

RRIRQRPPRLPRPRPRPNHNPRP
shrunken log2 fold change: -0.893

RRIRCRPPRLPRPRPRPVVHPRP
shrunken log2 fold change: -0.55

RRIRLRPPRLPRPRPRPCYTPRP
shrunken log2 fold change: -0.525

RRIRQRPPRLPRPRPRPVMQPRP
shrunken log2 fold change: 0.0499

RRIRGRPPRLPRPRPRPCREPRP
shrunken log2 fold change: -0.368

RRIRPRPPRLPRPRPRPRTKPRP
shrunken log2 fold change: 0.518

RRIRFRPPRLPRPRPRPHRIPRP
shrunken log2 fold change: -0.526

RRIRPRPPRLPRPRPRPYDCPRP
shrunken log2 fold change: -0.021

RRIRDRPPRLPRPRPRPSSYPRP
shrunken log2 fold change: -0.738

RRIRARPPRLPRPRPRPLTQPRP
shrunken log2 fold change: 0.209

RRIRYRPPRLPRPRPRPGTLPRP
shrunken log2 fold change: -0.803

RRIRWRPPRLPRPRPRPYIQPRP
shrunken log2 fold change: -1.07

RRIRFRPPRLPRPRPRPADGPRP
shrunken log2 fold change: 0.183

RRIRKRPPRLPRPRPRPWREPRP
shrunken log2 fold change: 0.184

RRIRDRPPRLPRPRPRPITIPRP
shrunken log2 fold change: -0.175

RRIRNRPPRLPRPRPRPTVEPRP
shrunken log2 fold change: 0.0287

RRIRERPPRLPRPRPRPTQHPRP
shrunken log2 fold change: 0.239

RRIRRRPPRLPRPRPRPRANPRP
shrunken log2 fold change: 0.954

RRIRGRPPRLPRPRPRPMFFPRP
shrunken log2 fold change: 0.336

RRIRSRPPRLPRPRPRPVHNPRP
shrunken log2 fold change: 0.0673

RRIRIRPPRLPRPRPRPGRCPRP
shrunken log2 fold change: -0.0543

RRIRDRPPRLPRPRPRPSITPRP
shrunken log2 fold change: -0.197

RRIRQRPPRLPRPRPRPLNVPRP
shrunken log2 fold change: -0.0218

RRIRQRPPRLPRPRPRPMLKPRP
shrunken log2 fold change: -0.106

RRIRQRPPRLPRPRPRPLFAPRP
shrunken log2 fold change: 0.013

RRIRWRPPRLPRPRPRPTYMPRP
shrunken log2 fold change: -0.0572

RRIRVRPPRLPRPRPRPWWHPRP
shrunken log2 fold change: 0.0994

RRIRERPPRLPRPRPRPEYVPRP
shrunken log2 fold change: -0.0151

RRIRARPPRLPRPRPRPSNLPRP
shrunken log2 fold change: -0.39

RRIRQRPPRLPRPRPRPDRDPRP
shrunken log2 fold change: -0.242

RRIRHRPPRLPRPRPRPYMMPRP
shrunken log2 fold change: -3.2

RRIRTRPPRLPRPRPRPLYRPRP
shrunken log2 fold change: 0.0015

RRIRQRPPRLPRPRPRPFTNPRP
shrunken log2 fold change: -0.0235

RRIRVRPPRLPRPRPRPNIAPRP
shrunken log2 fold change: 0.249

RRIRKRPPRLPRPRPRPGFMPRP
shrunken log2 fold change: 0.184

RRIRRRPPRLPRPRPRPDCCPRP
shrunken log2 fold change: 0.168

RRIRLRPPRLPRPRPRPYPTPRP
shrunken log2 fold change: -0.317

RRIRPRPPRLPRPRPRPVQPPRP
shrunken log2 fold change: 0.000272

RRIRTRPPRLPRPRPRPTGRPRP
shrunken log2 fold change: 0.099

RRIRKRPPRLPRPRPRPGSRPRP
shrunken log2 fold change: -0.171

RRIRKRPPRLPRPRPRPHGEPRP
shrunken log2 fold change: 0.428

RRIRARPPRLPRPRPRPMEKPRP
shrunken log2 fold change: -0.00226

RRIRFRPPRLPRPRPRPHDTPRP
shrunken log2 fold change: -0.535

RRIRARPPRLPRPRPRPLDPPRP
shrunken log2 fold change: 0.244

RRIRNRPPRLPRPRPRPDTLPRP
shrunken log2 fold change: -0.0286

RRIRRRPPRLPRPRPRPHREPRP
shrunken log2 fold change: -0.0451

RRIRFRPPRLPRPRPRPFEPPRP
shrunken log2 fold change: -0.0506

RRIRARPPRLPRPRPRPAGWPRP
shrunken log2 fold change: 1.56

RRIRARPPRLPRPRPRPDLEPRP
shrunken log2 fold change: 0.0744

RRIRRRPPRLPRPRPRPDPLPRP
shrunken log2 fold change: 0.119

RRIRERPPRLPRPRPRPHDWPRP
shrunken log2 fold change: -0.0393

RRIRDRPPRLPRPRPRPDVHPRP
shrunken log2 fold change: 0.244

RRIRPRPPRLPRPRPRPEWRPRP
shrunken log2 fold change: 0.362

RRIRGRPPRLPRPRPRPPFSPRP
shrunken log2 fold change: 0.444

RRIRDRPPRLPRPRPRPIKHPRP
shrunken log2 fold change: -0.373

RRIRVRPPRLPRPRPRPRCCPRP
shrunken log2 fold change: 0.201

RRIRCRPPRLPRPRPRPEVSPRP
shrunken log2 fold change: 0.282

RRIRPRPPRLPRPRPRPGNPPRP
shrunken log2 fold change: -0.043

RRIRTRPPRLPRPRPRPRPNPRP
shrunken log2 fold change: 0.267

RRIRDRPPRLPRPRPRPWWDPRP
shrunken log2 fold change: 0.083

RRIRNRPPRLPRPRPRPTTVPRP
shrunken log2 fold change: -0.12

RRIRWRPPRLPRPRPRPQLKPRP
shrunken log2 fold change: 0.147

RRIRMRPPRLPRPRPRPYWNPRP
shrunken log2 fold change: -1.04

RRIRYRPPRLPRPRPRPEGVPRP
shrunken log2 fold change: -0.0041

RRIRERPPRLPRPRPRPTQDPRP
shrunken log2 fold change: 0.217

RRIRHRPPRLPRPRPRPMMCPRP
shrunken log2 fold change: -0.0874

RRIRDRPPRLPRPRPRPRFNPRP
shrunken log2 fold change: 0.858

RRIRPRPPRLPRPRPRPLTEPRP
shrunken log2 fold change: 0.0389

RRIRLRPPRLPRPRPRPVEAPRP
shrunken log2 fold change: 0.224

RRIRTRPPRLPRPRPRPKQIPRP
shrunken log2 fold change: 0.0644

RRIRKRPPRLPRPRPRPTMYPRP
shrunken log2 fold change: -0.0949

RRIRPRPPRLPRPRPRPHPEPRP
shrunken log2 fold change: 0.203

RRIRQRPPRLPRPRPRPHQWPRP
shrunken log2 fold change: 0.323

RRIRSRPPRLPRPRPRPRIGPRP
shrunken log2 fold change: 0.395

RRIRMRPPRLPRPRPRPVFEPRP
shrunken log2 fold change: 0.59

RRIRDRPPRLPRPRPRPKSLPRP
shrunken log2 fold change: 0.196

RRIRPRPPRLPRPRPRPSVCPRP
shrunken log2 fold change: -0.273

RRIRWRPPRLPRPRPRPILHPRP
shrunken log2 fold change: 0.0591

RRIRDRPPRLPRPRPRPEWNPRP
shrunken log2 fold change: 0.546

RRIRIRPPRLPRPRPRPMFAPRP
shrunken log2 fold change: -0.00719

RRIRPRPPRLPRPRPRPVRMPRP
shrunken log2 fold change: 0.213

RRIRRRPPRLPRPRPRPNPIPRP
shrunken log2 fold change: 0.208

RRIRWRPPRLPRPRPRPQASPRP
shrunken log2 fold change: -0.11

RRIRSRPPRLPRPRPRPSFKPRP
shrunken log2 fold change: -0.542

RRIRCRPPRLPRPRPRPLWDPRP
shrunken log2 fold change: -0.386

RRIRNRPPRLPRPRPRPHVKPRP
shrunken log2 fold change: -0.17

RRIRKRPPRLPRPRPRPDVYPRP
shrunken log2 fold change: -0.0383

RRIRSRPPRLPRPRPRPAHQPRP
shrunken log2 fold change: -0.0659

RRIRDRPPRLPRPRPRPECSPRP
shrunken log2 fold change: 0.0314

RRIRCRPPRLPRPRPRPMAHPRP
shrunken log2 fold change: -0.00655

RRIRRRPPRLPRPRPRPFWDPRP
shrunken log2 fold change: -0.0897

RRIRHRPPRLPRPRPRPWRWPRP
shrunken log2 fold change: 0.16

RRIRDRPPRLPRPRPRPICMPRP
shrunken log2 fold change: -0.00256

RRIRMRPPRLPRPRPRPLIAPRP
shrunken log2 fold change: 0.34

RRIRERPPRLPRPRPRPAWRPRP
shrunken log2 fold change: 0.532

RRIRARPPRLPRPRPRPDTAPRP
shrunken log2 fold change: 0.147

RRIRARPPRLPRPRPRPQFFPRP
shrunken log2 fold change: 0.0526

RRIRSRPPRLPRPRPRPCLQPRP
shrunken log2 fold change: -0.197

RRIRSRPPRLPRPRPRPMDTPRP
shrunken log2 fold change: 0.0136
